From patent publication US9090686B2, “Antibodies for the treatment of HIV” (Pierre Fabre Medicament, priority 2009, dated 2015)
Substitutions are numbered along the chain they refer to.

B1: 515H7: murine anti-CXCR4 monoclonal antibody; light chain variable domain SEQ ID No. 7, heavy chain variable domain SEQ ID No. 8 (antibody, listed as Mus musculus, V domains shown)
VH: EVNLVESGGGLVQPGGSLRLSCATSGFTFTDNYMSWVRQPPGKALEWLGFIRNKANGYTTDYSASVRGRFTISRDNSQSILYLQMNALRAEDSATYYCARDVGSNYFDYWGQGTTLTVSS
VL: DIVMSQSPSSLAVSAGEKVTMSCKSSQSLFNSRTRKNYLAWYQQKPGQSPKLLIYWASARDSGVPARFTGSGSETYFTLTISRVQAEDLAVYYCMQSFNLRTFGGGTKLEIK
B2: c515H7: chimeric antibody 515H7: murine variable domains fused to human Ckappa and IgG1/IgG2/IgG4 constant domains; isotype tested not stated (antibody, V domains shown)
VH: B1 VH
VL: B1 VL
B3: 301aE5: murine anti-CXCR4 monoclonal antibody; light chain variable domain SEQ ID No. 34, heavy chain variable domain SEQ ID No. 35 (antibody, listed as Mus musculus, V domains shown)
VH: QVQLKESGPGLVAPSQSLSITCTVSGFSLTDYGVYWVRQPPGKGLEWLGMIWGDGTTDYNSALKSRLSISKDNSKSQVFLKMNTLQTDDTARYYCARGRQFGFDYWGQGTTLTVSS
VL: B1 VL with S22R, Y55F, A59I, D61E, A66D, E74G, Y76D, R83S, M95K, F98Y

Columns and labels:
human CXCR4 = human CXCR4 (Homo sapiens, UniProt P61073); assay: FACS binding to NIH3T3-hCXCR4 transfected cells; set-up: expressed in transfected cells; host or cells: NIH3T3 (mouse fibroblasts); details: for binding to human CXCR4-NIH3T3 transfected cell line (in words): FACS; for NIH3T3-CXCR4 (MFI): Mab 10 μg/ml, Mean Fluorescence Intensity by FACS
Chain of human CXCR4 (P61073 whole entry): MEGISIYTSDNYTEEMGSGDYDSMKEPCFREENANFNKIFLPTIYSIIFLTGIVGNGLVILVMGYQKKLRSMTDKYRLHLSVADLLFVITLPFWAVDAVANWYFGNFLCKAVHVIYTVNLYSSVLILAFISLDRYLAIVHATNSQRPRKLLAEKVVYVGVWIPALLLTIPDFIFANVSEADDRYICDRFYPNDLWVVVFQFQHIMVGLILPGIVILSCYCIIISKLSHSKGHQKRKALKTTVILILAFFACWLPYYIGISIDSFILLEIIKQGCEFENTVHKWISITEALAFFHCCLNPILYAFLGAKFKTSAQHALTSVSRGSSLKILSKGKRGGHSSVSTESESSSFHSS
Method: In this experiment, the specific binding to human CXCR4 (hCXCR4) of anti-CXCR4 Mabs 515H7 and 301aE5 was examined by FACS analysis.
(§1) NIH3T3 and NIH3T3-hCXCR4 transfected cells were incubated with 10 μg/ml of monoclonal antibodies 515H7 and 301aE5. The cells were then washed with 1% BSA/PBS/0.01% NaN3. Next, Alexa-labeled secondary antibodies were added to the cells and were allowed to incubate at 4° C. for 20 min. The cells were then washed again two times. Following the second wash, FACS analysis was performed.
as §1, with “NIH3T3-hCXCR4” for “NIH3T3 and NIH3T3-hCXCR4”, “a dose range” for “10 μg/ml”, “antibody c515H7 from 0 μg/ml to 10 μg/ml.” for “antibodies 515H7 and 301aE5.”, “1%BSA/PBS/0.01%” for “1% BSA/PBS/0.01%”
NIH3T3, NIH3T3-hCXCR4 transfected were incubated with 0 to 10 μg/mL of humanized Mabs 515H7 (hz515H7 VH1 D76N VL2, hz515H7 VH1 D76N VL2.1, hz515H7 VH1 D76N VL2.2, hz515H7 VH1 D76N VL2.3) for 20 min at 4° C. in the dark in 100 μl Facs buffer. After 3 washing in Facs buffer, cells were incubated with the secondary antibody, a goat anti-human Alexa 488 (dilution 1/500), for 20 minutes at 4° C. in the dark. After 3 washing in Facs buffer, propidium iodide was added in each well and only viable cells were analyzed by Facs. At least 5000 viable cells were assessed to evaluate the mean value of fluorescence intensity for each condition.

[1] = tested on: HIV-1 X4 primary isolate 92UG024; assay: Single cycle neutralization assay in human PBMC, isolate 92UG024; assay type: cell-based; set-up: 92UG024 % inhibition of infected cells 90 / 92UG024 % inhibition of infected cells 80: unit not given here; details: for 92UG024 % inhibition of infected cells 90: IC for 90% inhibition
Method: This assay is performed in 36 h using primary isolates KON, MN and 92UG024 concentrated and diluted accordingly to allow the detection 2% infected CD4 T lymphocytes after 2 days of infection.
Twenty-five microliters of various dilutions of Mabs 515H7, c515H7 and 301aE5 were incubated for 1 h at 37° C. with 25 μl of virus. Human PBMC (25 μl) at 20×10^6 cells/ml were added to the Mab/virus mixture in a 96-well plate (U-bottom, Costar 3599) and cultured for 36 h in RPMI 1640 10% FCS and 20 U/ml IL-2 (R&D Systems, Minneapolis, Minn.).
After 2 days of culture, HIV-infected lymphocytes were detected by intracellular staining of viral p24 Ag. Cells were fixed and permeabilized using both Cytofix/Cytoperm and Perm/Wash kits (BD Biosciences) according to the manufacturer and stained with a fluorescent anti-p24 Mab (FITC- or PE-anti-p24, clone KC57; Beckman Coulter/Immunotech, Hialeah, Fla.) used at a 1/160 dilution in Perm/Wash solution added for 15 min at 4° C. After washing in PBS with 3% FBS, PBMC were diluted in 300 μl of PBS before flow cytometry analysis (LSRII; BD Biosciences) with DIVA software (BD Biosciences). The percentage of p24-positive cells in the different samples was determined by gating 20,000 events on a living cell population identified by forward- and side-scatter parameters. The living cell subsets were analyzed with the live/dead solution kit (Invitrogen). The p24 Ag-positive value was obtained after subtraction of background events in mock-infected cells.
The percent of neutralization was defined as the reduction of p24-positive cells compared with control infected wells with no Mab. […]

| Molecule | binding to human CXCR4-NIH3T3 transfected cell line (in words) (human CXCR4) | NIH3T3-CXCR4 (MFI) (human CXCR4) | inhibition of HIV-1 X4 92UG024 primary isolate replication in PBMC (in words) [1] | 92UG024 % inhibition of infected cells 90 ([1]; human PBMC) | 92UG024 % inhibition of infected cells 80 ([1]; IC for 80% inhibition, human PBMC) |
| --- | --- | --- | --- | --- | --- |
| B1 | bind specifically | 2752 | able to inhibit | 10 | – |
| B2 | bound specifically | – | able to inhibit | 15 | – |
| B3 | bind specifically | 1367 | able to inhibit | >150 | 150 |
